In PMC3744072, “Analysis of the cartilage proteome from three different mouse models of genetic skeletal diseases reveals common and discrete disease signatures” (Biology Open, 2013):
“And” between values parts separate entries of the source, which are not always exact repeats. Identical values can stand only once.

What was measured:
[1] = molecular target: the molecule itself; experiment: non-reducing SDS-PAGE and Western blot; total protein lysates of isolated chondrocytes of 5-day-old mice, 4-12% gels, non-reduced against reduced (0.1 M DTT); oligomers assigned by apparent size
[2] = molecular target: the molecule itself; experiment: non-reducing SDS-PAGE and Western blot; sequential extracts (buffer 1: 0.15 M NaCl; buffer 2: 1 M NaCl, 10 mM EDTA; buffer 3: 4 M GuHCl, 10 mM EDTA) of knee cartilage of 3-week-old mice, non-reducing 4-13.5% gels; oligomers assigned by apparent size

| Protein | stoichiometry N [1] | stoichiometry N [2] |
| --- | --- | --- |
| cartilage oligomeric matrix protein (COMP), wild type, mouse (natural protein, cartilage oligomeric matrix protein, mouse, endogenous in chondrocytes; The text calls the retained form consistent with a tetramer; also called wild type COMP; source: endogenous, lysate of isolated costal chondrocytes of Matn3 V194D mice) not shown | 4 | – |
| matrilin-4 (mouse) (natural protein, mouse (endogenous in mouse cartilage), UniProt O89029 22-624, looked up, matrilin-4, mouse, endogenous in cartilage) QLQSAGPRCYNGPLDLVFMIDSSRSVRPFEFETMRQFLVGLLRSLDVGLNATRVGVIQYSSQVQSVFPLGAFSRREDMERAIRAVVPLAQGTMTGLAIQYAMNVAFSEAEGARPSEERVPRVLVIVTDGRPQDRVAEVAAQARARGIEIYAVGVQRADVGSLRTMASPPLDQHVFLVESFDLIQEFGLQFQGRLCGKDLCAELVHGCQHLCVNAPGTFYCACNSGYKLAPDNKNCLALDLCAEGTHGCEHLCVNSVDSYFCRCRAGFALQQDQRSCRAIDYCSFGNHSCQHECVSTLAGPQCRCREGHDLLPDGRSCRVRDFCNGVDHGCEFQCVSEGLSFHCLCPEGRRLQADGKSCDRCREGHVDLVLLVDGSKSVRPQNFELVKRFVNQIVDFLDVSPEGTRVGLVQFSSRVRTEFPLGRYGTAAEVKQAVLAVEYMERGTMTGLALRHMVEHSFSEAQGARPRDLNVPRVGLVFTDGRSQDDISVWAARAKEEGIVMYAVGVGKAVEEELREIASEPSELHVSYSPDFSTMTHLLENLKGSICPEEGIGAGTELRSPCECESLVEFQGRTLGALESLTQNLARLTERLEELENQLASRK | – | 2 and 3 |
